experiment: First-order nonenzymatic deamidation of pentapeptides in Tris buffer; type: physicochemical; settings: pH 7.4, 37.0° C., 0.15 M Tris HCl; Asn pentapeptides
Protocol: One of the discoveries made was that the sequence dependence of deamidation is much richer and covers a wider range than previously thought. In 37° C., pH 7.4, 0.15 M Tris buffer, the combination of XxxAsnYyy and XxxGlnYyy sequences where Xxx and Yyy are any of the naturally occuring amino acids covers a range from less than 1 day to over 15,000 days with the entire range in between available.
It is based on pentapeptide rates measure in 37° C., pH 7.4, 0.15 M Tris buffer. The applicability of a pentapeptide model to sequence dependence was verified in a separate set of experiments. All values listed in this table are experimental except for the four values in boxes, which were estimated from the rest of the data.
It is also based on pentapeptide rates measure in 37° C., pH 7.4, 0.15 M Tris buffer. In this case, the 52 values shown in bold were measured, and the rest of the values were derived from surface fitting.
Deamidation rates are affected by a wide variety of parameters, including, pH, Temperature, Ionic Strength, and Buffer Ions. These rates are measured under pH and Temperature conditions that are applicable to biological systems. The buffer type and concentration were chosen to minimize ion affects to the extent possible given the experimental limitations. Modification of these conditions will change the rates in Tables 1 and 2. As long as the conditions are not taken to extremes (i.e. high temperature, or strongly acidic or basic conditions) the qualitative sequence dependence should remain the same and the rates reported here can be used with necessary adjustments.

Substance	First-Order Deamidation Halftimes of GlyXxxAsnYyyGly [days]
GlyArgAsnLysGly (GRNKG; printed: GlyArgAsnLysGly)	49.6
GlyArgAsnMetGly (GRNMG; printed: GlyArgAsnMetGly)	74.4
GlyArgAsnPheGly (GRNFG; printed: GlyArgAsnPheGly)	68.3
GlyArgAsnProGly (GRNPG; printed: GlyArgAsnProGly)	5790
GlyArgAsnSerGly (GRNSG; printed: GlyArgAsnSerGly)	14.3
GlyArgAsnThrGly (GRNTG; printed: GlyArgAsnThrGly)	50.7
GlyArgAsnTrpGly (GRNWG; printed: GlyArgAsnTrpGly)	127
GlyArgAsnTyrGly (GRNYG; printed: GlyArgAsnTyrGly)	90.0
GlyArgAsnValGly (GRNVG; printed: GlyArgAsnValGly)	247
GlyAspAsnAlaGly (GDNAG; printed: GlyAspAsnAlaGly)	24.0
GlyAspAsnAmCysGly	45.8
GlyAspAsnArgGly (GDNRG; printed: GlyAspAsnArgGly)	87.2
GlyAspAsnAspGly (GDNDG; printed: GlyAspAsnAspGly)	29.4
GlyAspAsnCysGly (GDNCG; printed: GlyAspAsnCysGly)	54.1
GlyAspAsnGluGly (GDNEG; printed: GlyAspAsnGluGly)	46.8
GlyAspAsnGlyGly (GDNGG; printed: GlyAspAsnGlyGly)	1.53
GlyAspAsnHisGly (GDNHG; printed: GlyAspAsnHisGly)	9.7
GlyAspAsnIleGly (GDNIG; printed: GlyAspAsnIleGly)	298
GlyAspAsnLeuGly (GDNLG; printed: GlyAspAsnLeuGly)	111

Substance	First-Order Deamidation Halftimes of GlyXxxAsnYyyGly [days]
GlyAspAsnLysGly (GDNKG; printed: GlyAspAsnLysGly)	75.9
GlyAspAsnMetGly (GDNMG; printed: GlyAspAsnMetGly)	57.3
GlyAspAsnPheGly (GDNFG; printed: GlyAspAsnPheGly)	70.1
GlyAspAsnProGly (GDNPG; printed: GlyAspAsnProGly)	11800
GlyAspAsnSerGly (GDNSG; printed: GlyAspAsnSerGly)	17.0
GlyAspAsnThrGly (GDNTG; printed: GlyAspAsnThrGly)	52.4
GlyAspAsnTrpGly (GDNWG; printed: GlyAspAsnTrpGly)	80.3
GlyAspAsnTyrGly (GDNYG; printed: GlyAspAsnTyrGly)	70.4
GlyAspAsnValGly (GDNVG; printed: GlyAspAsnValGly)	241
GlyCysAsnAlaGly (GCNAG; printed: GlyCysAsnAlaGly)	26.4
GlyCysAsnArgGly (GCNRG; printed: GlyCysAsnArgGly)	83.1
GlyCysAsnAspGly (GCNDG; printed: GlyCysAsnAspGly)	30.6
GlyCysAsnCysGly (GCNCG; printed: GlyCysAsnCysGly)	46.0
GlyCysAsnGluGly (GCNEG; printed: GlyCysAsnGluGly)	48.3
GlyCysAsnGlyGly (GCNGG; printed: GlyCysAsnGlyGly)	1.14
GlyCysAsnHisGly (GCNHG; printed: GlyCysAsnHisGly)	10.8
GlyCysAsnIleGly (GCNIG; printed: GlyCysAsnIleGly)	304
GlyCysAsnLeuGly (GCNLG; printed: GlyCysAsnLeuGly)	119
GlyCysAsnLysGly (GCNKG; printed: GlyCysAsnLysGly)	46.6

same assay, conditions: pH 7.4, 37.0 ° C., 0.15 M Tris HCl; Gln pentapeptides; 52 values measured, rest derived from surface fitting

Substance	First-Order Deamidation Halftimes of GlyXxxGlnYyyGly [days]
GlyArgGlnAlaGly (GRQAG; printed: GlyArgGlnAlaGly)	4400
GlyArgGlnArgGly (GRQRG; printed: GlyArgGlnArgGly)	2300
GlyArgGlnAspGly (GRQDG; printed: GlyArgGlnAspGly)	5900
GlyArgGlnCysGly (GRQCG; printed: GlyArgGlnCysGly)	1000
GlyArgGlnGluGly (GRQEG; printed: GlyArgGlnGluGly)	5400
GlyArgGlnGlyGly (GRQGG; printed: GlyArgGlnGlyGly)	660
GlyArgGlnHisGly (GRQHG; printed: GlyArgGlnHisGly)	4900
GlyArgGlnIleGly (GRQIG; printed: GlyArgGlnIleGly)	5500
GlyArgGlnLeuGly (GRQLG; printed: GlyArgGlnLeuGly)	5400
GlyArgGlnLysGly (GRQKG; printed: GlyArgGlnLysGly)	4000
GlyArgGlnMetGly (GRQMG; printed: GlyArgGlnMetGly)	4100
GlyArgGlnPheGly (GRQFG; printed: GlyArgGlnPheGly)	7100
GlyArgGlnProGly (GRQPG; printed: GlyArgGlnProGly)	8100
GlyArgGlnSerGly (GRQSG; printed: GlyArgGlnSerGly)	4300
GlyArgGlnThrGly (GRQTG; printed: GlyArgGlnThrGly)	4200
GlyArgGlnTrpGly (GRQWG; printed: GlyArgGlnTrpGly)	11000
GlyArgGlnTyrGly (GRQYG; printed: GlyArgGlnTyrGly)	9200
GlyArgGlnValGly (GRQVG; printed: GlyArgGlnValGly)	5800

Substance	First-Order Deamidation Halftimes of GlyXxxGlnYyyGly [days]
GlyAspGlnAlaGly (GDQAG; printed: GlyAspGlnAlaGly)	7100
GlyAspGlnArgGly (GDQRG; printed: GlyAspGlnArgGly)	5200
GlyAspGlnAspGly (GDQDG; printed: GlyAspGlnAspGly)	8400
GlyAspGlnCysGly (GDQCG; printed: GlyAspGlnCysGly)	2100
GlyAspGlnGluGly (GDQEG; printed: GlyAspGlnGluGly)	8200
GlyAspGlnGlyGly (GDQGG; printed: GlyAspGlnGlyGly)	800
GlyAspGlnHisGly (GDQHG; printed: GlyAspGlnHisGly)	2500
GlyAspGlnIleGly (GDQIG; printed: GlyAspGlnIleGly)	6400
GlyAspGlnLeuGly (GDQLG; printed: GlyAspGlnLeuGly)	6200
GlyAspGlnLysGly (GDQKG; printed: GlyAspGlnLysGly)	4600
GlyAspGlnMetGly (GDQMG; printed: GlyAspGlnMetGly)	5200
GlyAspGlnPheGly (GDQFG; printed: GlyAspGlnPheGly)	8500
GlyAspGlnProGly (GDQPG; printed: GlyAspGlnProGly)	11000
GlyAspGlnSerGly (GDQSG; printed: GlyAspGlnSerGly)	6200
GlyAspGlnThrGly (GDQTG; printed: GlyAspGlnThrGly)	5400
GlyAspGlnTrpGly (GDQWG; printed: GlyAspGlnTrpGly)	17000
GlyAspGlnTyrGly (GDQYG; printed: GlyAspGlnTyrGly)	13000
GlyAspGlnValGly (GDQVG; printed: GlyAspGlnValGly)	6600
